Laboratory results taken from patent US20050282739A1 (PALATIN TECHNOLOGIES, published 2005).
Square brackets hold non-standard residues; d marks the D form. Ends that are not written are not given here. Nle = CCCC[C@H](N)C(=O)O

B1: α-MSH parent polypeptide Ac-Ser-Tyr-Ser-Met-Glu-His-Phe-Arg-Trp-Gly-Lys-Pro-Val-NH2 (peptide)
peptide: Ac-SYSMEHFRWGKPV-NH2
notes: not complexed to Re; also called α-MSH analog
B2: metallopeptide 3-2 (peptide)
peptide: YV[Nle]GH[dF]RWDRCF-NH2
modifications: not fully specified (bridges); printed as Tyr-Val-Nle-Gly-His-D-Phe-Arg-Trp-Asp-Arg-Cys-Phe-NH2; also: oxorhenium(V) N3S1 chelate (backbone N of D9, R10, C11 and C11 S)
B3: metallopeptide 3-4 (peptide)
peptide: YV[Nle]GH[dF]RWCDRF-NH2
modifications: not fully specified (bridges); printed as Tyr-Val-Nle-Gly-His-D-Phe-Arg-Trp-Cys-Asp-Arg-Phe-NH2; also: oxorhenium(V) N3S1 chelate (backbone N of R7, W8, C9 and C9 S)
B4: metallopeptide 3-5 (peptide)
peptide: YV[Nle]GH[dF]RCWDRF-NH2
modifications: not fully specified (bridges); printed as Tyr-Val-Nle-Gly-His-D-Phe-Arg-Cys-Trp-Asp-Arg-Phe-NH2; also: bridge at 8 via Re(V)=O, other end not in the chain
B5: metallopeptide 3-9 (peptide)
peptide: YV[Nle]GCH[dF]RWDRF-NH2
modifications: also: oxorhenium(V) N3S1 chelate: C5 SG + backbone N of X3, G4, C5, bridge at 5 via Re(V)=O, other end not in the chain
B6: metallopeptide 3-6 (peptide)
peptide: YV[Nle]GH[dF]CRWDRF-NH2
modifications: not fully specified (bridges); printed as Tyr-Val-Nle-Gly-His-D-Phe-Cys-Arg-Trp-Asp-Arg-Phe-NH2; also: bridge at 7 via Re(V)=O, other end not in the chain
B7: metallopeptide 3-3 (peptide)
peptide: YV[Nle]GH[dF]RWDCRF-NH2
modifications: not fully specified (bridges); printed as Tyr-Val-Nle-Gly-His-D-Phe-Arg-Trp-Asp-Cys-Arg-Phe-NH2; also: oxorhenium(V) N3S1 chelate (backbone N of W8, D9, C10 and C10 S)

Molecular target: T1, melanocortin-1 receptor (MC1-R) of B-16 mouse melanoma cells (mouse, UniProt Q01727 1-315)
T1 construct: whole, on cells; membranes prepared from the cells were used; also called Melanocortin Receptor 1
Experiment: 125I-NDP-α-MSH competition, B-16 membranes
Experimental: (§1) The competitive inhibition binding assay was conducted using membranes prepared from hMC3-R, hMC4-R, hMC5-R, and B-16 mouse melanoma cells (containing MC1-R) using 0.4 nM ¹²⁵I-NDP-alpha-MSH (New England Nuclear, Boston, Mass., USA) in 50 mM HEPES buffer containing 1 mM MgCl₂, 2 mM CaCl₂, and 5 mM KCl, at pH 7.2. […] Incubation was for 90 minutes at room temperature, after which the assay mixture was filtered and the membranes washed three times with ice cold buffer. The filter was dried and counted in a gamma counter for remaining radioactivity bound to the membranes. 100% specific binding was defined as the difference in radioactivity (cpm) bound to cell membranes in the absence and presence of 1 μM α-MSH. […] Each assay was conducted in triplicate and the actual mean valves are described.

T1 sequence (Q01727 whole entry): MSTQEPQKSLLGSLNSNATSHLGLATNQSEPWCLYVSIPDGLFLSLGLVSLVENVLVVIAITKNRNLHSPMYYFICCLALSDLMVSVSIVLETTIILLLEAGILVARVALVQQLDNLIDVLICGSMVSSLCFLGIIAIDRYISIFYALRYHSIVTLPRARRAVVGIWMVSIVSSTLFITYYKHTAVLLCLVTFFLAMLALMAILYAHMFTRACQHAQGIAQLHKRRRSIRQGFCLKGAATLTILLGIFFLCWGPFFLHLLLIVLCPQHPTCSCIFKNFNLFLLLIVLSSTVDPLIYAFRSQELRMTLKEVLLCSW

Binder	% Inhibition at 1 µM
Ac-SYCS[Nle]EHFRWGKPV-NH2 (also: oxorhenium(V) N3S1 chelate at Cys3) [metallopeptide 1-12]	96%
Ac-SYS[Nle]EHFRWCGKPV-NH2 (also: oxorhenium(V) N3S1 chelate at Cys10) [metallopeptide 1-5]	57%
Ac-SYSC[Nle]EHFRWGKPV-NH2 (also: oxorhenium(V) N3S1 chelate at Cys4) [metallopeptide 1-11]	95%
Ac-SYS[Nle]EHCFRWGKPV-NH2 (also: oxorhenium(V) N3S1 chelate at Cys7) [metallopeptide 1-8]	42%
Ac-SYS[Nle]ECHFRWGKPV-NH2 (also: oxorhenium(V) N3S1 chelate at Cys6) [metallopeptide 1-9]	74%
Ac-SYS[Nle]EHFCRWGKPV-NH2 (also: oxorhenium(V) N3S1 chelate at Cys8) [metallopeptide 1-7]	68%
Ac-SYS[Nle]CEHFRWGKPV-NH2 (also: oxorhenium(V) N3S1 chelate at Cys5) [metallopeptide 1-10]	72%
Ac-SYS[Nle]EHFRWGKGVC-NH2 (not fully specified; also: oxorhenium(V) N3S1 chelate at Cys14) [metallopeptide 1-1]	95%
Ac-SYS[Nle]EHFRCWGKPV-NH2 (also: oxorhenium(V) N3S1 chelate at Cys9) [metallopeptide 1-6]	29%
B1	99%
Ac-SYS[Nle]EHFRWGKGCV-NH2 (also: oxorhenium(V) N3S1 chelate at Cys13) [metallopeptide 1-2]	87%
Ac-SYS[Nle]EHFRWGKCPV-NH2 (also: oxorhenium(V) N3S1 chelate at Cys12) [metallopeptide 1-3]	87%
Ac-SYS[Nle]EHFRWGCKPV-NH2 (also: oxorhenium(V) N3S1 chelate at Cys11) [metallopeptide 1-4]	72%

Molecular target: T2, human melanocortin-5 receptor (hMC5-R) (human, UniProt P33032 1-325)
T2 construct: whole, on cells; membranes prepared from hMC5-R cells were used; also called Melanocortin Receptor 5
Experiment: 125I-NDP-α-MSH competition, hMC5-R membranes
Experimental: as §1

T2 sequence (P33032 whole entry): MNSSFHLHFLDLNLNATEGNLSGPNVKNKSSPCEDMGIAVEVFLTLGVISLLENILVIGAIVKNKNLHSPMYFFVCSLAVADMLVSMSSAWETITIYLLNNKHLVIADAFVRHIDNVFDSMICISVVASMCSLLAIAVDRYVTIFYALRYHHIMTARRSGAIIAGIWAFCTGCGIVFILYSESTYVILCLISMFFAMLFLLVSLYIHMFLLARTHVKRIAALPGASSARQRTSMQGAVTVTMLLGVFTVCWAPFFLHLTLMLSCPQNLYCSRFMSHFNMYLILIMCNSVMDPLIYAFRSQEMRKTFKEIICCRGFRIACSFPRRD

Binder	% Inhibition at 1 µM
Ac-SYCS[Nle]EHFRWGKPV-NH2 (also: oxorhenium(V) N3S1 chelate at Cys3) [metallopeptide 1-12]	19%
Ac-SYS[Nle]EHFRWCGKPV-NH2 (also: oxorhenium(V) N3S1 chelate at Cys10) [metallopeptide 1-5]	0%
Ac-SYSC[Nle]EHFRWGKPV-NH2 (also: oxorhenium(V) N3S1 chelate at Cys4) [metallopeptide 1-11]	6%
Ac-SYS[Nle]ECHFRWGKPV-NH2 (also: oxorhenium(V) N3S1 chelate at Cys6) [metallopeptide 1-9]	6%
Ac-SYS[Nle]EHFCRWGKPV-NH2 (also: oxorhenium(V) N3S1 chelate at Cys8) [metallopeptide 1-7]	0%
Ac-SYS[Nle]CEHFRWGKPV-NH2 (also: oxorhenium(V) N3S1 chelate at Cys5) [metallopeptide 1-10]	5%
Ac-SYS[Nle]EHFRWGKGVC-NH2 (not fully specified; also: oxorhenium(V) N3S1 chelate at Cys14) [metallopeptide 1-1]	68%
Ac-SYS[Nle]EHFRCWGKPV-NH2 (also: oxorhenium(V) N3S1 chelate at Cys9) [metallopeptide 1-6]	0%
Ac-SYS[Nle]EHFRWGKGCV-NH2 (also: oxorhenium(V) N3S1 chelate at Cys13) [metallopeptide 1-2]	37%
Ac-SYS[Nle]EHFRWGKCPV-NH2 (also: oxorhenium(V) N3S1 chelate at Cys12) [metallopeptide 1-3]	12%

Molecular target: T3, human melanocortin-3 receptor (hMC3-R) (human, UniProt P41968 1-323)
T3 construct: whole, on cells; membranes prepared from hMC3-R cells were used; also called Melanocortin Receptor 3
Experiment: 125I-NDP-α-MSH competition, hMC3-R membranes
Experimental: as §1

T3 sequence (P41968 whole entry): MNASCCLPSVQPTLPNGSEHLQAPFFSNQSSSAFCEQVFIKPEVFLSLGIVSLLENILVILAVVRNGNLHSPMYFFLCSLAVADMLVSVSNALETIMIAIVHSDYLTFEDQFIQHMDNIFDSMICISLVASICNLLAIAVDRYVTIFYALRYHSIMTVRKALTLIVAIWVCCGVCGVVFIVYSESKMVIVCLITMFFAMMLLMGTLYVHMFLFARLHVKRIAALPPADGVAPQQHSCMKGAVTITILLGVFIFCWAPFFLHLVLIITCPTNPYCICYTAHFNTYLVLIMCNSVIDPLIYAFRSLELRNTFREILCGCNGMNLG

Binder	% Inhibition at 1 µM
Ac-SYCS[Nle]EHFRWGKPV-NH2 (also: oxorhenium(V) N3S1 chelate at Cys3) [metallopeptide 1-12]	15%
Ac-SYS[Nle]EHFRWCGKPV-NH2 (also: oxorhenium(V) N3S1 chelate at Cys10) [metallopeptide 1-5]	0%
Ac-SYSC[Nle]EHFRWGKPV-NH2 (also: oxorhenium(V) N3S1 chelate at Cys4) [metallopeptide 1-11]	18%
Ac-SYS[Nle]EHCFRWGKPV-NH2 (also: oxorhenium(V) N3S1 chelate at Cys7) [metallopeptide 1-8]	0%
Ac-SYS[Nle]ECHFRWGKPV-NH2 (also: oxorhenium(V) N3S1 chelate at Cys6) [metallopeptide 1-9]	0%
Ac-SYS[Nle]EHFCRWGKPV-NH2 (also: oxorhenium(V) N3S1 chelate at Cys8) [metallopeptide 1-7]	0%
Ac-SYS[Nle]CEHFRWGKPV-NH2 (also: oxorhenium(V) N3S1 chelate at Cys5) [metallopeptide 1-10]	0%
Ac-SYS[Nle]EHFRWGKGVC-NH2 (not fully specified; also: oxorhenium(V) N3S1 chelate at Cys14) [metallopeptide 1-1]	48%
Ac-SYS[Nle]EHFRCWGKPV-NH2 (also: oxorhenium(V) N3S1 chelate at Cys9) [metallopeptide 1-6]	0%
Ac-SYS[Nle]EHFRWGKCPV-NH2 (also: oxorhenium(V) N3S1 chelate at Cys12) [metallopeptide 1-3]	0%
Ac-SYS[Nle]EHFRWGCKPV-NH2 (also: oxorhenium(V) N3S1 chelate at Cys11) [metallopeptide 1-4]	0%

Molecular target: T2, human melanocortin-5 receptor (hMC5-R)
Experiment: 125I-NDP-α-MSH competition, hMC5-R membranes
Remark: another data set of the same source
Experimental: as §1
(§2) The first unnumbered peptide in Table 3 is the parent polypeptide, which is a Nle³, D-Phe⁶ substituted γ-MSH analog specific for melanocortin receptors. The methods and assays set forth in Example 1 were followed.

Binder	% Inhibition at 1 µM
B2	100%
YVXGHFRWDRFC (Nle 3 (X in letters); D-Phe 6; C-terminal amide; Re complexed at Cys 12) [metallopeptide 3-1]	102%
B3	100%
B4	81%
B5	67%
B6	31%
B7	99%

Molecular target: T1, melanocortin-1 receptor (MC1-R) of B-16 …
Experiment: 125I-NDP-α-MSH competition, B-16 membranes
Remark: another data set of the same source
Experimental: as §1, §2

Binder	% Inhibition at 1 µM
B2	99%
YVXGHFRWDRFC (Nle 3 (X in letters); D-Phe 6; C-terminal amide; Re complexed at Cys 12) [metallopeptide 3-1]	95%
B3	98%
B4	83%
B5	77%
B6	52%
B7	99%

Molecular target: T4, human melanocortin-4 receptor (hMC4-R) (human, UniProt P32245 1-332)
T4 construct: whole, on cells; membranes prepared from hMC4-R cells were used; also called Melanocortin Receptor 4
Experiment: 125I-NDP-α-MSH competition, hMC4-R membranes
Experimental: as §1

T4 sequence (P32245 whole entry): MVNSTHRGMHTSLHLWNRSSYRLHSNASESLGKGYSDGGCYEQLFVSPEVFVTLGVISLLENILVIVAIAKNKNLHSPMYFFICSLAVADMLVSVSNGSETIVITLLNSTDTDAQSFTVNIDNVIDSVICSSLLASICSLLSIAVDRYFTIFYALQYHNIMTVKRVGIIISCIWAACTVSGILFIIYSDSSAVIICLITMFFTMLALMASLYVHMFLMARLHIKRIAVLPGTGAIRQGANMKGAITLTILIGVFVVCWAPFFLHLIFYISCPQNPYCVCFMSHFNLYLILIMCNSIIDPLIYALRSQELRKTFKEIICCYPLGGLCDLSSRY

Binder	% Inhibition at 1 µM
Ac-SYCS[Nle]EHFRWGKPV-NH2 (also: oxorhenium(V) N3S1 chelate at Cys3) [metallopeptide 1-12]	26%
Ac-SYS[Nle]EHFRWCGKPV-NH2 (also: oxorhenium(V) N3S1 chelate at Cys10) [metallopeptide 1-5]	0%
Ac-SYSC[Nle]EHFRWGKPV-NH2 (also: oxorhenium(V) N3S1 chelate at Cys4) [metallopeptide 1-11]	21%
Ac-SYS[Nle]EHCFRWGKPV-NH2 (also: oxorhenium(V) N3S1 chelate at Cys7) [metallopeptide 1-8]	0%
Ac-SYS[Nle]EHFCRWGKPV-NH2 (also: oxorhenium(V) N3S1 chelate at Cys8) [metallopeptide 1-7]	0%
Ac-SYS[Nle]EHFRWGKGVC-NH2 (not fully specified; also: oxorhenium(V) N3S1 chelate at Cys14) [metallopeptide 1-1]	63%
Ac-SYS[Nle]EHFRCWGKPV-NH2 (also: oxorhenium(V) N3S1 chelate at Cys9) [metallopeptide 1-6]	0%
Ac-SYS[Nle]EHFRWGKGCV-NH2 (also: oxorhenium(V) N3S1 chelate at Cys13) [metallopeptide 1-2]	0%
Ac-SYS[Nle]EHFRWGKCPV-NH2 (also: oxorhenium(V) N3S1 chelate at Cys12) [metallopeptide 1-3]	0%
Ac-SYS[Nle]EHFRWGCKPV-NH2 (also: oxorhenium(V) N3S1 chelate at Cys11) [metallopeptide 1-4]	0%

Molecular target: T3, human melanocortin-3 receptor (hMC3-R)
Experiment: 125I-NDP-α-MSH competition, hMC3-R membranes
Remark: another data set of the same source
Experimental: as §1, §2

Binder	% Inhibition at 1 µM
B2	91%
YVXGHFRWDRFC (Nle 3 (X in letters); D-Phe 6; C-terminal amide; Re complexed at Cys 12) [metallopeptide 3-1]	96%
B3	88%
B4	45%
B5	69%
B6	20%
B7	95%

Molecular target: T1, melanocortin-1 receptor (MC1-R) of B-16 …
Experiment: 125I-NDP-α-MSH competition, B-16 membranes
Remark: another data set of the same source
Experimental: as §1
The methods and assays set forth in Example 1 were followed.

Binder	% Inhibition at 1 µM
B1	99%

Molecular target: T4, human melanocortin-4 receptor (hMC4-R)
Experiment: 125I-NDP-α-MSH competition, hMC4-R membranes
Remark: another data set of the same source
Experimental: as §1, §2

Binder	% Inhibition at 1 µM
B2	89%
YVXGHFRWDRFC (Nle 3 (X in letters); D-Phe 6; C-terminal amide; Re complexed at Cys 12) [metallopeptide 3-1]	98%
B3	94%
B4	33%
B5	55%
B6	31%
B7	99%
